T1: HDP1 homeodomain-like (Plasmodium falciparum, UniProt Q8IKH4 2990-3078)
T1 sequence: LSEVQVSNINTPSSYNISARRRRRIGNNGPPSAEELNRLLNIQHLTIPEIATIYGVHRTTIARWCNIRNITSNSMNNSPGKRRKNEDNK

B1: GTGCAC_negctrl_site303 (dsDNA)
DNA 1: TCTTTTTTTTTTTTTTTTTCTTCTTCTCAATATAAA
DNA 2: TTTATATTGAGAAGAAGAAAAAAAAAAAAAAAAAGA
B2: GTGCAC_negctrl_site183 (dsDNA)
DNA 1: TGTATAGGTACAATAATTATAGAGTAATTGACATTA
DNA 2: TAATGTCAATTACTCTATAATTATTGTACCTATACA
B3: GTGCAC_negctrl_site318 (dsDNA)
DNA 1: ATTTAAAAAAAAAAAAATAAATAACTTGAAAAACAA
DNA 2: TTGTTTTTCAAGTTATTTATTTTTTTTTTTTTAAAT
B4: GTGCAC_negctrl_site52 (dsDNA)
DNA 1: TTTTTACTATAATTAAAATTAACAAAAGAAAATGAT
DNA 2: ATCATTTTCTTTTGTTAATTTTAATTATAGTAAAAA
B5: GTGCAC_negctrl_site77 (dsDNA)
DNA 1: TATTAAAATATGTCAGTTCTTAAAAAGTTGATGAGT
DNA 2: ACTCATCAACTTTTTAAGAACTGACATATTTTAATA
B6: GTGCAC_negctrl_site162 (dsDNA)
DNA 1: TTTCTTATAGATTTTAATCCTCTATCAAAAAAAGAA
DNA 2: TTCTTTTTTTGATAGAGGATTAAAATCTATAAGAAA
B7: GTGCAC_negctrl_site289 (dsDNA)
DNA 1: TTTTTAGAAAAGGTTATAAAAAATTAATTGAAAAAA
DNA 2: TTTTTTCAATTAATTTTTTATAACCTTTTCTAAAAA
B8: GTGCAC_negctrl_site74 (dsDNA)
DNA 1: AATTGGAAGAAAAAAAAGGAAGGAAAGTTATTACAT
DNA 2: ATGTAATAACTTTCCTTCCTTTTTTTTCTTCCAATT
B9: GTGCAC_negctrl_site87 (dsDNA)
DNA 1: ATATATATAAAATATTATATTAAAAAAAATAAAATA
DNA 2: TATTTTATTTTTTTTAATATAATATTTTATATATAT
B10: GTGCAC_negctrl_site480 (dsDNA)
DNA 1: TTATAATAAAAGGCTTTACAATTATTAAACAAATAA
DNA 2: TTATTTGTTTAATAATTGTAAAGCCTTTTATTATAA
B11: GTGCAC_negctrl_site564 (dsDNA)
DNA 1: ATAATGAACAATATTATATATAAAATATAATTTATA
DNA 2: TATAAATTATATTTTATATATAATATTGTTCATTAT
B12: GTGCAC_negctrl_site73 (dsDNA)
DNA 1: AGCACACAAAAAAAAAAAAAAAAAAAAAAAGGAATG
DNA 2: CATTCCTTTTTTTTTTTTTTTTTTTTTTTGTGTGCT
B13: GTGCAC_negctrl_site221 (dsDNA)
DNA 1: ATATGTATAAGTATGTATATTTATTTATACTTATGT
DNA 2: ACATAAGTATAAATAAATATACATACTTATACATAT
B14: GTGCAC_negctrl_site550 (dsDNA)
DNA 1: AAAAAAAATAAAGAGAAAAAAAAAAGAAAATTATAT
DNA 2: ATATAATTTTCTTTTTTTTTTCTCTTTATTTTTTTT
B15: GTGCAC_negctrl_site147 (dsDNA)
DNA 1: AGTAAAAAAAAAAAAAAAAAAAAAAAAAAAAAAAAA
DNA 2: TTTTTTTTTTTTTTTTTTTTTTTTTTTTTTTTTACT
B16: GTGCAC_negctrl_site190 (dsDNA)
DNA 1: TAGTTACTTCTTATATAAAATATGTATATAAAAATA
DNA 2: TATTTTTATATACATATTTTATATAAGAAGTAACTA
B17: GTGCAC_negctrl_site143 (dsDNA)
DNA 1: TTTTTTTTTTTTTTTTTTTTTTTTTTGTTCAGGCCT
DNA 2: AGGCCTGAACAAAAAAAAAAAAAAAAAAAAAAAAAA
B18: GTGCAC_negctrl_site607 (dsDNA)
DNA 1: TTTTCATTTATGTATATATTTATTTTGATTTAATGT
DNA 2: ACATTAAATCAAAATAAATATATACATAAATGAAAA
B19: GTGCAC_negctrl_site639 (dsDNA)
DNA 1: AAATAATTTATAAATAAATACATTGTTACTTTTTCT
DNA 2: AGAAAAAGTAACAATGTATTTATTTATAAATTATTT
B20: GTGCAC_negctrl_site302 (dsDNA)
DNA 1: TAAAAAAATAAAAAAAAAAAATTATAAAATTATATA
DNA 2: TATATAATTTTATAATTTTTTTTTTTTATTTTTTTA
B21: GTGCAC_negctrl_site236 (dsDNA)
DNA 1: TGTTAAAAGGTTAAATTAAAATAACCTCCGGAAATT
DNA 2: AATTTCCGGAGGTTATTTTAATTTAACCTTTTAACA
B22: GTGCAC_negctrl_site722 (dsDNA)
DNA 1: ATAATACAAAAAAAAAAAAAAAATAAAATAATAAAA
DNA 2: TTTTATTATTTTATTTTTTTTTTTTTTTTGTATTAT
B23: GTGCAC_negctrl_site152 (dsDNA)
DNA 1: ATTATTTAATTTTATTAAAAAAAAACAAATTAACAG
DNA 2: CTGTTAATTTGTTTTTTTTTAATAAAATTAAATAAT
B24: GTGCAC_negctrl_site542 (dsDNA)
DNA 1: AAAATCCAGTTTTCAAAATTGAACAAAAAAAAAATA
DNA 2: TATTTTTTTTTTGTTCAATTTTGAAAACTGGATTTT
B25: GTGCAC_negctrl_site240 (dsDNA)
DNA 1: TTTTTTTTTTTTTTTTTTTGATTCTTATAAAAATTT
DNA 2: AAATTTTTATAAGAATCAAAAAAAAAAAAAAAAAAA
B26: GTGCAC_negctrl_site144 (dsDNA)
DNA 1: TTTTTTCTTTTTTTTTTTAATTATAAACATGATATT
DNA 2: AATATCATGTTTATAATTAAAAAAAAAAAGAAAAAA
B27: GTGCAC_negctrl_site474 (dsDNA)
DNA 1: ATAAAATATTAATTTTAAATTAATCAATATATATAA
DNA 2: TTATATATATTGATTAATTTAAAATTAATATTTTAT
B28: GTGCAC_negctrl_site347 (dsDNA)
DNA 1: TTTTTTTTTATATAAAAAAAAATTTTTATTATTTTA
DNA 2: TAAAATAATAAAAATTTTTTTTTATATAAAAAAAAA
B29: GTGCAC_negctrl_site697 (dsDNA)
DNA 1: AAAACTTTTAAAATTTTGTATTCATTCCTTCAACAA
DNA 2: TTGTTGAAGGAATGAATACAAAATTTTAAAAGTTTT
B30: GTGCAC_negctrl_site459 (dsDNA)
DNA 1: TTTTTTAGATTACATAAATATAAATATAAATATATA
DNA 2: TATATATTTATATTTATATTTATGTAATCTAAAAAA
B31: GTGCAC_negctrl_site630 (dsDNA)
DNA 1: TTCTTTTCTTTTTTCTTTTTTTTTTTCTTTTCTTTT
DNA 2: AAAAGAAAAGAAAAAAAAAAAGAAAAAAGAAAAGAA
B32: GTGCAC_negctrl_site405 (dsDNA)
DNA 1: TTTTTTATATTGATATTTATTAAATATGAAATGTTA
DNA 2: TAACATTTCATATTTAATAAATATCAATATAAAAAA

The binders below were run against T1, HDP1 homeodomain-like (assay: gcPBM; about 25 ug protein; PBS, 1% milk, 0.2 mg/ml BSA, salmon testes DNA, 0.03% Triton X-100). Conditions: tags: N-terminal GST (pGEX-4T-1), kept; chain copies: 2; label: surface-attached array probe.

| Binder | binding signal |
| --- | --- |
| B1 | 6.15 ln median PBM intensity, better of two orientations |
| B2 | 6.21 ln median PBM intensity, better of two orientations |
| B3 | 6.08 ln median PBM intensity, better of two orientations |
| B4 | 6.13 ln median PBM intensity, better of two orientations |
| B5 | 6.19 ln median PBM intensity, better of two orientations |
| B6 | 6.12 ln median PBM intensity, better of two orientations |
| B7 | 6.15 ln median PBM intensity, better of two orientations |
| B8 | 6.06 ln median PBM intensity, better of two orientations |
| B9 | 6.1 ln median PBM intensity, better of two orientations |
| B10 | 6.03 ln median PBM intensity, better of two orientations |
| B11 | 6.17 ln median PBM intensity, better of two orientations |
| B12 | 6.21 ln median PBM intensity, better of two orientations |
| B13 | 6.16 ln median PBM intensity, better of two orientations |
| B14 | 6.22 ln median PBM intensity, better of two orientations |
| B15 | 6.13 ln median PBM intensity, better of two orientations |
| B16 | 6.17 ln median PBM intensity, better of two orientations |

| Binder | binding signal |
| --- | --- |
| B17 | 5.99 ln median PBM intensity, better of two orientations |
| B18 | 6.11 ln median PBM intensity, better of two orientations |
| B19 | 6.13 ln median PBM intensity, better of two orientations |
| B20 | 5.98 ln median PBM intensity, better of two orientations |
| B21 | 6.21 ln median PBM intensity, better of two orientations |
| B22 | 6.04 ln median PBM intensity, better of two orientations |
| B23 | 6.14 ln median PBM intensity, better of two orientations |
| B24 | 6.19 ln median PBM intensity, better of two orientations |
| B25 | 6.02 ln median PBM intensity, better of two orientations |
| B26 | 6.07 ln median PBM intensity, better of two orientations |
| B27 | 6.16 ln median PBM intensity, better of two orientations |
| B28 | 6.12 ln median PBM intensity, better of two orientations |
| B29 | 6.07 ln median PBM intensity, better of two orientations |
| B30 | 6.12 ln median PBM intensity, better of two orientations |
| B31 | 6.08 ln median PBM intensity, better of two orientations |
| B32 | 6.13 ln median PBM intensity, better of two orientations |
